Laboratory results reported in patent publication US20130259876A1 (Regeneron, published 2013).
Substitutions are numbered along the chain they refer to.

B1: H4H2532P (antibody, V domains shown)
VH: QVQLVQSGTEVKKPGAAVRVSCKASGYTFTDYHMHWVRQAPGQGLEWMGWINPNSGGTNSAQKFQGRVTMTRDTSISTAYMELNGLRSDDTAVYYCARKAGYTSSWFDYWGQGTTVTVSS
VL: not shown
B2: H4H2555P (antibody, V domains shown)
VH: B1 VH with T9A, R19K, Y102F, Y109H
VL: not shown
B3: H4H2534S (antibody, V domains shown)
VH: EVQLVESGPGLVKPAQTLSLTCTVSGGSINSGGNYWSWIRQHPGKGLEWIGYIYYSGNTYYNPSLKSRVTISVDMSKNQFSLKLRSVTAADTAVYFCARDPRGITGTHHFDCWGQGTLVTVSS
VL: EIVLTQSPGTLSLSPGERATLSCRTSQSVSSRYLAWYQQKPGQAPRLLIYDASSRATGIPDRFSGSGSGTDFTLTISRLEPEDFAVYYCQQFGPSLFTFGPGTKVDIK
B4: H4H2559P (antibody, V domains shown)
VH: QVQLVQSGAEVKKPGASVKVSCKASGYTFTDYFLHWVRQAPGQGLEWVGWINPNSGGTNFAQKFQGRVTMTRDTSISTAYMDLSRLRSDDTAVYYCARKAGYTSSWFDYWGQGTLVTVSS
VL: DIVMTQSPDSLAVSLGERATINCKSSQSILYSFNNKNYLAWYQQKIGQPPMLLIYWASTRESGVPDRFSGSGSGTDFTLTISRLQAEDVAVYYCQQYYSSITFGQGTRLEIK
B5: H4H2477N (antibody, V domains shown)
VH: QVQLQQWGAGLLKPSETLSLTCAVYGGSFSDYYWSWIRQPPGKGLEWIGEINHSGNTNYNPSLKSRVTISVDTSKNQFSLKLRSVTAADMAVYYCARIQLWLRGYDYYGMDVWGQGTTVTVSS
VL: DIQMTQSPSSLSASVGDRVTITCRASQGIRNDLGWYQQKPGKAPKRLIYAASSLQGGVPSRFSGSGSGTEFSLTISSLQPEDFASYYCLQHNTYPWTFGQGTKVEIK
B6: H4H2490N (antibody, V domains shown)
VH: QVQLVQSGADVKWPGASVKVSCRASGYTFTGYYMHWVRQAPGQGLEWMGWINPNNGGTNYAQKFQGRVTMTRDTSITTVYMELSSLISDDTAVYYCARGEDLELRNYYYYGMDVWGQGTSVTVSS
VL: DIQMTQSPSSLSASVGDRVTITCRASQSISSYLNWYQQKPGKAPKLLIYAASNLQSGVPSRFSGSGFGTDFTLTISSLQSEDFATYYCQQTYSTRTFGRGTKVEIN
B7: H4H2499N (antibody, V domains shown)
VH: QVQLVESGGGLVKPGGSLRLSCAASGFTFSDYYMSWIRQAPGKGLEWVSYISTSGSTIYYPDSVKGRFTISRDNAKNSLNLQMNSLRAEDTAVYYCLLHYYYGMDVWGQGTTVTVSS
VL: EIVLTQSPATLSLSPGERAPLSCRASQSVSSYLAWYQQKPGQPPRLLIYDASNRATGIPARFSGSGSGTDFTLTISSLEPEDFAVYYCQQRSNWPWTFGQGTKVEIK

What follows are binders tested against T1, scHLA-B27-mmH (engineered HLA-B*27 ectodomain in-line fusion protein) (human (HLA-B*2705, beta-2 …)) (assay: SPR (Biacore), 25 C, PBS pH 7.2).
T1 construct: also called soluble HLA-B*27 fusion protein

Binder	Kd
B1	457 pM
B2	491 pM
B3	2130 pM
B4	434 pM

These binders were tested against T1, scHLA-B27-mmH (engineered HLA-B*27 …) (assay: SPR (Biacore), mAb captured, 25 C, HBST pH 7.4).

Binder	Kd	t1/2	binding result
B1	452 pM	21 min	
B2	521 pM	18 min	
B3	5180 pM	6 min	
B4	895 pM	19 min	
B5			no binding
B6	9970 pM	33 min	
B7	21300 pM	7 min	

These binders were tested against T1, scHLA-B27-mmH (engineered HLA-B*27 …) (assay: SPR (Biacore), mAb captured, 37 C, HBST pH 7.4).

Binder	Kd	t1/2
B1	837 pM	9 min
B2	1020 pM	7 min
B3	8700 pM	3 min
B4	1180 pM	8 min
B7	28000 pM	4 min

What follows are binders tested against T1, scHLA-B27-mmH (engineered HLA-B*27 …) (assay: SPR (Biacore), mAb captured, 25 C, PBS pH 7.2).

Binder	Kd	t1/2
B1	457 pM	52 min
B2	491 pM	47 min
B3	2130 pM	16 min
B4	434 pM	65 min

The binders below were run against T1, scHLA-B27-mmH (engineered HLA-B*27 …) (assay: SPR (Biacore), mAb captured, 25 C, PBS pH 5.75).

Binder	Kd	t1/2
B1	717 pM	36 min
B2	855 pM	31 min
B3	53400 pM	5 min
B4		43 min

Each binder was assayed against T1, scHLA-B27-mmH (engineered HLA-B*27 …) (assay: SPR (Biacore), 25 C, PBS pH 5.75).

Binder	Kd
B1	717 pM
B2	855 pM
B3	53400 pM
